Results from publication PMC10127133, “Structural insights into a cooperative switch between one and two FimH bacterial adhesins binding pauci- and high-mannose type N-glycan receptors” (The Journal of Biological Chemistry, 2023).

biological target: T1, FimH lectin domain (residues Phe1-Thr158) (Escherichia coli, UniProt P08191 22-179); assay: SPR; single-cycle kinetics on BIAcore T200; ω1-glycoprotein immobilised on a CM5 chip via primary amino groups (EDC/NHS); FimH as analyte at 14.4, 7.17, 3.60, 1.80, 0.9 μM; 20 mM Hepes, 150 mM NaCl, 0.005% Tween; 30 μl/min; 298 K; fit to the Langmuir 1:1 model; conditions: both partners purified
T1 construct: FimH type-1 fimbrial adhesin of Escherichia coli, lectin domain, residues Phe1-Thr158; No tag is mentioned; also called FimH adhesin; source: E. coli C43(DE3), pET24a vector, purified (sulfopropyl fast flow cation exchange chromatography)
T1 sequence (P08191 22-179): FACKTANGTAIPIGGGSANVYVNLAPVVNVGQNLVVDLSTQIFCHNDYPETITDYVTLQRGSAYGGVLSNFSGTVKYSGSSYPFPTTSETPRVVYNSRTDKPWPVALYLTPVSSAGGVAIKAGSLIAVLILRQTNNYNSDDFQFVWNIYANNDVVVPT

Binder | Kd | koff | kon
omega-1 (ω1) glycoprotein carrying Man3Gn2 (natural protein, N-glycans Man3Gn2 (oligomannose-3, paucimannosidic); sites not stated) QNRWDYYVFSVTWPPTYCESIQCRLPRGLRDFTIHGLWPTIFPNRQPNCTGSLRFDIRRLQGIRNELDLMWPHLKNYRESPSFWKHEFEKHGLCAVEDPQVFNQYGYFKFGIKLMQKLNLLKTLMKYKISPHDSRQYDTINLMNVLEREFGYNGSANCIRKPGRRGMYHLEEVHVCLNRKHEFMNCPFLGNCPKKFIFPPFQ | 33.6 nM | 0.00013 s⁻¹ | 3890 M⁻¹ s⁻¹
omega-1 (ω1) glycoprotein carrying X1Man3Gn2F1[3] (natural protein, N-glycans X1Man3Gn2F1[3] (oligomannose-3 with β1,2-xylose on mannose 3 and α1,3 core fucose); sites not stated) QNRWDYYVFSVTWPPTYCESIQCRLPRGLRDFTIHGLWPTIFPNRQPNCTGSLRFDIRRLQGIRNELDLMWPHLKNYRESPSFWKHEFEKHGLCAVEDPQVFNQYGYFKFGIKLMQKLNLLKTLMKYKISPHDSRQYDTINLMNVLEREFGYNGSANCIRKPGRRGMYHLEEVHVCLNRKHEFMNCPFLGNCPKKFIFPPFQ | 6000 nM | 0.0015 s⁻¹ | 257 M⁻¹ s⁻¹
omega-1 (ω1) glycoprotein carrying Man3Gn2F1[3] (natural protein, N-glycans Man3Gn2F1[3] (α1,3 core-fucosylated oligomannose-3); sites not stated) QNRWDYYVFSVTWPPTYCESIQCRLPRGLRDFTIHGLWPTIFPNRQPNCTGSLRFDIRRLQGIRNELDLMWPHLKNYRESPSFWKHEFEKHGLCAVEDPQVFNQYGYFKFGIKLMQKLNLLKTLMKYKISPHDSRQYDTINLMNVLEREFGYNGSANCIRKPGRRGMYHLEEVHVCLNRKHEFMNCPFLGNCPKKFIFPPFQ | 128 nM | 6.72e-05 s⁻¹ | 525 M⁻¹ s⁻¹
omega-1 (ω1) glycoprotein carrying Man3Gn2F1[6] (natural protein, N-glycans Man3Gn2F1[6] (α1,6 core-fucosylated oligomannose-3); sites not stated) QNRWDYYVFSVTWPPTYCESIQCRLPRGLRDFTIHGLWPTIFPNRQPNCTGSLRFDIRRLQGIRNELDLMWPHLKNYRESPSFWKHEFEKHGLCAVEDPQVFNQYGYFKFGIKLMQKLNLLKTLMKYKISPHDSRQYDTINLMNVLEREFGYNGSANCIRKPGRRGMYHLEEVHVCLNRKHEFMNCPFLGNCPKKFIFPPFQ | 134 nM | 8.89e-05 s⁻¹ | 663 M⁻¹ s⁻¹
